Target: T1, recombinant GST-tagged human occludin (human), Q16625
T1 chain: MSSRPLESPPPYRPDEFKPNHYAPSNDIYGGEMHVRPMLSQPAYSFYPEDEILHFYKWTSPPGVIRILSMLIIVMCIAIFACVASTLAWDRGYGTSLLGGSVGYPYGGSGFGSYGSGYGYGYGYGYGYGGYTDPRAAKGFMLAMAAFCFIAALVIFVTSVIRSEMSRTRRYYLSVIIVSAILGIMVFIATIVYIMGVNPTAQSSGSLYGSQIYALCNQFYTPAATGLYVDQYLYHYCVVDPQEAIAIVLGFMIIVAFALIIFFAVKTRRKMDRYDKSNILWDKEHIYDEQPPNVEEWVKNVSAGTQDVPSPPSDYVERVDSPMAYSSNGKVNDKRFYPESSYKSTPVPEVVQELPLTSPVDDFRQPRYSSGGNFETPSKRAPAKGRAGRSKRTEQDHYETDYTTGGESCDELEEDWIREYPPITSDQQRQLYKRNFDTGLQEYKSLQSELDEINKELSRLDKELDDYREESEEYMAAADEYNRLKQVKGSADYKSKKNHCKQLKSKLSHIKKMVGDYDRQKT
Assay: SDS-PAGE and immunoblot; recombinant GST-occludin in 50 mM HEPES pH 7.4, 16 h at 37 °C, with or without purified HtrA; 12% SDS-PAGE, blots with α-occludin H-279 and α-GST
Details: remark: other sources report otherwise

B1: recombinant GST-tagged human occludin, Q16625 1-522 (natural protein)
chain: MSSRPLESPPPYRPDEFKPNHYAPSNDIYGGEMHVRPMLSQPAYSFYPEDEILHFYKWTSPPGVIRILSMLIIVMCIAIFACVASTLAWDRGYGTSLLGGSVGYPYGGSGFGSYGSGYGYGYGYGYGYGGYTDPRAAKGFMLAMAAFCFIAALVIFVTSVIRSEMSRTRRYYLSVIIVSAILGIMVFIATIVYIMGVNPTAQSSGSLYGSQIYALCNQFYTPAATGLYVDQYLYHYCVVDPQEAIAIVLGFMIIVAFALIIFFAVKTRRKMDRYDKSNILWDKEHIYDEQPPNVEEWVKNVSAGTQDVPSPPSDYVERVDSPMAYSSNGKVNDKRFYPESSYKSTPVPEVVQELPLTSPVDDFRQPRYSSGGNFETPSKRAPAKGRAGRSKRTEQDHYETDYTTGGESCDELEEDWIREYPPITSDQQRQLYKRNFDTGLQEYKSLQSELDEINKELSRLDKELDDYREESEEYMAAADEYNRLKQVKGSADYKSKKNHCKQLKSKLSHIKKMVGDYDRQKT
- stoichiometry N: 2
